Results reported in patent US20240132615A1 (ICHNOS SCIENCES, published 2024).

T1: human BCMA on cells (NCI-H929, NCI-H929 CD38 KO, MOLP-8) (human, UniProt Q02223 1-184)
T1 construct: whole, on cells; endogenous BCMA of myeloma cell lines
T1 sequence (looked up): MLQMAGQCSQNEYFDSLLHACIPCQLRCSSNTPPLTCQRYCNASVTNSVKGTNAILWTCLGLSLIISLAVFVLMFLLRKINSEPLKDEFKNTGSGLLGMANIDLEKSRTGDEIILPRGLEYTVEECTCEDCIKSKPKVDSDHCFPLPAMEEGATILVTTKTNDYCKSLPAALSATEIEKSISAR

T2: recombinant human BCMA Fc fusion protein (Acrobiosystems BC7-H5254 / BCA-H5254) (human, UniProt Q02223 1-54)
T2 construct: also called recombinant BCMA-Fc protein; not shown: Fc of the bought fusion protein, not described
T2 sequence (looked up): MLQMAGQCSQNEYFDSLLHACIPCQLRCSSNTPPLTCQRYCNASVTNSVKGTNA

B1: Anti-CD38-E2-UCP01-A10 FAB (Fab, V domains shown)
VH: QVQLVQSGAEVKKPGSSVKVSCKASGLPDATYAIGWVRQAPGQGLEWMGRIIPVFGSAHYAQKFQGRVTITADESTSTAYMELSSLRSEDTAVYYCARGLGYYLYSSYYFDIWGQGTLVTVSS
VL: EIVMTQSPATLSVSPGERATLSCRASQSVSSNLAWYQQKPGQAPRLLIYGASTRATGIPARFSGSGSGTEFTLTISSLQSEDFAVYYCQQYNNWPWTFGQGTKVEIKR
notes: Fab
B2: Anti-CD38-E2-UCP02-F3 FAB (Fab, V domains shown)
VH: QVQLVQSGAEVKKPGSSVKVSCKASGGSFSNYAIGWVRQAPGQGLEWMGRIIPVLDAAHYAQKFQGRVTITADESTSTAYMELSSLRSEDTAVYYCARGLGYYLYSSYYFDIWGQGTLVTVSS
VL: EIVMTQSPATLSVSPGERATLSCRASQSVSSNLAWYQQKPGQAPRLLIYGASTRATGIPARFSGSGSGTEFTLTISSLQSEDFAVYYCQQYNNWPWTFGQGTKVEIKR
notes: Fab
B3: Anti-CD38-E2-UCP02-D6 FAB (Fab, V domains shown)
VH: QVQLVQSGAEVKKPGSSVKVSCKASGGSFSNYAIGWVRQAPGQGLEWMGRIIPRLDAEHYAQKFQGRVTITADESTSTAYMELSSLRSEDTAVYYCARGLGYYLYSSYYFDIWGQGTLVTVSS
VL: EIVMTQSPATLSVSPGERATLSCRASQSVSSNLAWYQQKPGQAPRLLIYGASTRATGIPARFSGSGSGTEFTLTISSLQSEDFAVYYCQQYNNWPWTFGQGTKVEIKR
notes: Fab
B4: Anti-CD38-E2-UCP02-E7 FAB (Fab, V domains shown)
VH: QVQLVQSGAEVKKPGSSVKVSCKASGGSFSNYAIGWVRQAPGQGLEWMGRIIPALAATHYAQKFQGRVTITADESTSTAYMELSSLRSEDTAVYYCARGLGYYLYSSYYFDIWGQGTLVTVSS
VL: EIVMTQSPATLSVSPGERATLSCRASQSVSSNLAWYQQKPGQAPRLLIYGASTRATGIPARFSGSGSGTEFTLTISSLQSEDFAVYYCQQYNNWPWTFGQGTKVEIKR
notes: Fab
B5: Anti-CD38-E2-UCP02-A5 FAB (Fab, V domains shown)
VH: QVQLVQSGAEVKKPGSSVKVSCKASGGSFSNYAIGWVRQAPGQGLEWMGRIIPDLGAAHYAQKFQGRVTITADESTSTAYMELSSLRSEDTAVYYCARGLGYYLYSSYYFDIWGQGTLVTVSS
VL: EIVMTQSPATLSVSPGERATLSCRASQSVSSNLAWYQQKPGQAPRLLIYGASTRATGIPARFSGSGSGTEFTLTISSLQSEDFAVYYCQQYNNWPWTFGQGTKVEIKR
notes: Fab; also called anti-CD38-E2-A5; E2-A5
B6: Anti-BCMA-D3-MP04-B11a FAB (Fab, V domains shown)
VH: EVQLVESGGGLIQPGGSLRLSCAASGFIFSHYEMNWVRQAPGKGLEWVSAIGQVDGEVYADSVKGRFTISRDNSKNTLYLQMNSLRAEDTAVYYCARVPYSYSGYSGADIWGQGTLVTVSS
VL: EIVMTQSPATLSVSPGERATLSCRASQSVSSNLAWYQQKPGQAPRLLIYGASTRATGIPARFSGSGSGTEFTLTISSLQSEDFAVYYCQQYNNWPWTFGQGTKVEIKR
notes: Fab
B7: Anti-BCMA-D3-MP04-F3 FAB (Fab, V domains shown)
VH: EVQLVESGGGLIQPGGSLRLSCAASGFIFSHYEMNWVRQAPGKGLEWVSAIGQVGNTVYADSVKGRFTISRDNSKNTLYLQMNSLRAEDTAVYYCARVPYSYSGYSGADIWGQGTLVTVSS
VL: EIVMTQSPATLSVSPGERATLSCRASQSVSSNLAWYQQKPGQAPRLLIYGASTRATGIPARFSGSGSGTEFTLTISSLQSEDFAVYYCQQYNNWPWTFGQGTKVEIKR
notes: Fab
B8: Anti-BCMA-D3-MP04-G7 FAB (Fab, V domains shown)
VH: EVQLVESGGGLIQPGGSLRLSCAASGFIFSHYEMNWVRQAPGKGLEWVSAIGQRDGTVYADSVKGRFTISRDNSKNTLYLQMNSLRAEDTAVYYCARVPYSYSGYSGADIWGQGTLVTVSS
VL: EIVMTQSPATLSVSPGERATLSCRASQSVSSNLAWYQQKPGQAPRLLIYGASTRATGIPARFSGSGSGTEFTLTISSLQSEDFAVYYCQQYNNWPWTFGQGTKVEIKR
notes: Fab
B9: Anti-BCMA-D3-MP05-A9 FAB (Fab, V domains shown)
VH: EVQLVESGGGLIQPGGSLRLSCAASGFIFSHYEMNWVRQAPGKGLEWVSAIGQGGNTVYADSVKGRFTISRDNSKNTLYLQMNSLRAEDTAVYYCARVPYSYAGYSGADIWGQGTLVTVSS
VL: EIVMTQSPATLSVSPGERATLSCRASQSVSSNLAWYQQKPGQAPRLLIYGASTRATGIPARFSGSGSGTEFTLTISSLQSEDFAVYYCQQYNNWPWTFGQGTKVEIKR
notes: Fab
B10: Anti-BCMA-D3-MP04-B11b FAB (Fab, V domains shown)
VH: EVQLVESGGGLIQPGGSLRLSCAASGFIFSHYEMNWVRQAPGKGLEWVSAIGQVDAEVYADSVKGRFTISRDNSKNTLYLQMNSLRAEDTAVYYCARVPYSYSGYSGADIWGQGTLVTVSS
VL: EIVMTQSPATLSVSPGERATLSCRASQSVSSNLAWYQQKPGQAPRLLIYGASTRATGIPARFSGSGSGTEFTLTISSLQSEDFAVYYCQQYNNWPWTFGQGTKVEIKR
notes: Fab
B11: Anti-BCMA-D3-MP04-B11d FAB (Fab, V domains shown)
VH: EVQLVESGGGLIQPGGSLRLSCAASGFIFSHYEMNWVRQAPGKGLEWVSAIGQVAAEVYADSVKGRFTISRDNSKNTLYLQMNSLRAEDTAVYYCARVPYSYSGYSGADIWGQGTLVTVSS
VL: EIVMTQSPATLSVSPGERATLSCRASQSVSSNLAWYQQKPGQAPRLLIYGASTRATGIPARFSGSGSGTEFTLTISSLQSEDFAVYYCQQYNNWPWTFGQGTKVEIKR
notes: Fab
B12: Anti-BCMA-D3-MP05-C1b FAB (Fab, V domains shown)
VH: EVQLVESGGGLIQPGGSLRLSCAASGFIFSHYEMNWVRQAPGKGLEWVSAIGQGGNTVYADSVKGRFTISRDNSKNTLYLQMNSLRAEDTAVYYCARVPYSYIGYAGADIWGQGTLVTVSS
VL: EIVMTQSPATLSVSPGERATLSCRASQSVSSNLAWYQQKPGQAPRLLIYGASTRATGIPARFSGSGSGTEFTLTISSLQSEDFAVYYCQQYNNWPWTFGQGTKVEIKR
notes: Fab
B13: Anti-BCMA-D3-MP05-F4 FAB (Fab, V domains shown)
VH: EVQLVESGGGLIQPGGSLRLSCAASGFIFSHYEMNWVRQAPGKGLEWVSAIGQGGNTVYADSVKGRFTISRDNSKNTLYLQMNSLRAEDTAVYYCARVPYSYLGYQGADIWGQGTLVTVSS
VL: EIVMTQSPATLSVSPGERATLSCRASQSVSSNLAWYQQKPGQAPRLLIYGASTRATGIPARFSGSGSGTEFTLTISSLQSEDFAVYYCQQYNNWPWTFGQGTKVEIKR
notes: Fab
B14: Anti-BCMA-D3-MP04-B11c FAB (Fab, V domains shown)
VH: EVQLVESGGGLIQPGGSLRLSCAASGFIFSHYEMNWVRQAPGKGLEWVSAIGQVEGEVYADSVKGRFTISRDNSKNTLYLQMNSLRAEDTAVYYCARVPYSYSGYSGADIWGQGTLVTVSS
VL: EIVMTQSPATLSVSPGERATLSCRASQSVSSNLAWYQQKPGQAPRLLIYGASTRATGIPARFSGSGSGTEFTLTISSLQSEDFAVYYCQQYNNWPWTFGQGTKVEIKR
notes: Fab
B15: Anti-BCMA-D3-MP05-C1a FAB (Fab, V domains shown)
VH: EVQLVESGGGLIQPGGSLRLSCAASGFIFSHYEMNWVRQAPGKGLEWVSAIGQGGNTVYADSVKGRFTISRDNSKNTLYLQMNSLRAEDTAVYYCARVPYSYMGYAGADIWGQGTLVTVSS
VL: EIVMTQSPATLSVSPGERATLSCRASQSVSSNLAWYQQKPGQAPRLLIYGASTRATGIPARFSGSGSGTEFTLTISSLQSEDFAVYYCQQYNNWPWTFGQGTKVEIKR
notes: Fab
B16: Anti-BCMA-D3-MP04-A2 FAB (Fab, V domains shown)
VH: EVQLVESGGGLIQPGGSLRLSCAASGFIFSHYEMNWVRQAPGKGLEWVSAIGQQGGNTVYADSVKGRFTISRDNSKNTLYLQMNSLRAEDTAVYYCARVPYSYSGYSGADIWGQGTLVTVSS
VL: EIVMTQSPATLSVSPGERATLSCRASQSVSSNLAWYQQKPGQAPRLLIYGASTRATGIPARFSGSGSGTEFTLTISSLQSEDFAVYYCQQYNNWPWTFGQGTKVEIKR
notes: Fab
B17: Anti-BCMA-D3-MP04-C2 FAB (Fab, V domains shown)
VH: EVQLVESGGGLIQPGGSLRLSCAASGFIFSHYEMNWVRQAPGKGLEWVSAIGQFGGNTVYADSVKGRFTISRDNSKNTLYLQMNSLRAEDTAVYYCARVPYSYSGYSGADIWGQGTLVTVSS
VL: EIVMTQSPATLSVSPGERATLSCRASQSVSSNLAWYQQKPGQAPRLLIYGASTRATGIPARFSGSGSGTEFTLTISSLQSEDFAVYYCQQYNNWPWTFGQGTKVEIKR
notes: Fab
B18: Anti-BCMA-D3-MP04-C8a FAB (Fab, V domains shown)
VH: EVQLVESGGGLIQPGGSLRLSCAASGFIFSHYEMNWVRQAPGKGLEWVSAIGQMGFGTLYADNVKGRFTISRDNSKNTLYLQMNSLRAEDTAVYYCARVPYSYSGYSGADIWGQGTLVTVSS
VL: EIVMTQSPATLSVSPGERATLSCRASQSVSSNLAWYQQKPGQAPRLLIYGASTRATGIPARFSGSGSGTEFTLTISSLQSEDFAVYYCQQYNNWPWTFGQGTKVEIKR
notes: Fab
B19: Anti-BCMA-D3-MP04-C8b FAB (Fab, V domains shown)
VH: EVQLVESGGGLIQPGGSLRLSCAASGFIFSHYEMNWVRQAPGKGLEWVSAIGQIGFGTLYADNVKGRFTISRDNSKNTLYLQMNSLRAEDTAVYYCARVPYSYSGYSGADIWGQGTLVTVSS
VL: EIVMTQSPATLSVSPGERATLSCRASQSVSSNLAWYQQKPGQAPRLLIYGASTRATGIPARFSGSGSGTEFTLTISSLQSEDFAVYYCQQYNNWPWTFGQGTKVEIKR
notes: Fab
B20: Anti-BCMA-D3-MP04-D4 FAB (Fab, V domains shown)
VH: EVQLVESGGGLIQPGGSLRLSCAASGFIFSHYEMNWVRQAPGKGLEWVSAIGQVGGNTVYADSVKGRFTISRDNSKNTLYLQMNSLRAEDTAVYYCARVPYSYSGYSGADIWGQGTLVTVSS
VL: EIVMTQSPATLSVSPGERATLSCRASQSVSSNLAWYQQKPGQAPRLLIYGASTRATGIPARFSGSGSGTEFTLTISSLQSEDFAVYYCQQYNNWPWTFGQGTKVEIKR
notes: Fab
B21: Anti-BCMA-D3-MP03-G7 FAB (Fab, V domains shown)
VH: EVQLVESGGGLIQPGGSLRLSCAASGFIFSHYEMNWVRQAPGKGLEWVSIIGQRGHTTEYADSVKGRFTISRDNSKNTLYLQMNSLRAEDTAVYYCARVPYSYSGYSGADIWGQGTLVTVSS
VL: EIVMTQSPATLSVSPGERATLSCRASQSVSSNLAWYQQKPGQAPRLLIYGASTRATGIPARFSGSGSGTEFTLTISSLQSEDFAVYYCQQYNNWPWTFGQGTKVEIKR
notes: Fab
B22: Anti-BCMA-D3-MP04-E11 FAB (Fab, V domains shown)
VH: EVQLVESGGGLIQPGGSLRLSCAASGFIFSHYEMNWVRQAPGKGLEWVSAIGQLGGNTVYADSVKGRFTISRDNSKNTLYLQMNSLRAEDTAVYYCARVPYSYSGYSGADIWGQGTLVTVSS
VL: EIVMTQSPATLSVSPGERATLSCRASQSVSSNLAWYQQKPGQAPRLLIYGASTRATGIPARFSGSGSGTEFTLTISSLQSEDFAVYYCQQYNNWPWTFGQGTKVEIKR
notes: Fab; also called anti-BCMA-D3-E11; D3-E11
B23: Anti-CD3-C1-UCP01-B9 IgG1LALA (antibody, V domains shown)
VH: QVQLVQSGAEVKKPGSSVKVSCKASGGKFSRYAISWVRQAPGQGLEWMGGINAPVVRSPEYAQKFQGRVTITADESTSTAYMELSSLRSEDTAVYYCARYGYSLYMDIWGQGTLVTVSS
VL: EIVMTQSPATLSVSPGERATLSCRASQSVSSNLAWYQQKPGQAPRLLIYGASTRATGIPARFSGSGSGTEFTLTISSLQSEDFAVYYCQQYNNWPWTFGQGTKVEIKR
notes: IgG1 LALA
B24: Anti-CD3-C1-UCP01-E6 IgG1LALA (antibody, V domains shown)
VH: QVQLVQSGAEVKKPGSSVKVSCKASGGKFSRYAISWVRQAPGQGLEWMGGITPPHVGIADYAQKFQGRVTITADESTSTAYMELSSLRSEDTAVYYCARYGYSLYMDIWGQGTLVTVSS
VL: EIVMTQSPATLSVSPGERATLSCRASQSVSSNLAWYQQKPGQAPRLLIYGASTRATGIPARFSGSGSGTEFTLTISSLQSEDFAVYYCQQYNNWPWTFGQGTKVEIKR
notes: IgG1 LALA

How the values were obtained:
[1] = target: T3, Biotinylated Human CD38 Protein, Avitag, His Tag (Acrobiosystems CD8-H82E7) (human, UniProt P28907 43-300, biotinylated); assay: SPR, Fab as analyte, biotin-captured human CD38
T3 construct: bought protein; also called biotinylated recombinant human CD38 protein; human CD38-avi-his

[2] = target: T4, recombinant cynomolgus monkey CD38-ECD-C-his protein (cynomolgus monkey, UniProt Q5VAN0 45-301); assay: SPR, Fab as analyte, captured cynomolgus CD38-his
T4 construct: made in house; Q5VAN0 residues 43-301 (residue 44 deleted) with C-terminal 6-His; also called cynomolgus monkey CD38-C-His; recombinant cynomolgus monkey CD38 protein

[3] = target: T1, human BCMA on cells (NCI-H929, NCI-H929 …); assay: flow cytometry, NCI-H929 cells, one-site fit
[4] = target: T2, recombinant human BCMA Fc fusion …; assay: SPR, Fab as analyte, captured human BCMA-Fc
[5] = target: T5, recombinant cynomolgus monkey BCMA Fc fusion protein (Acrobiosystems BCA-C5253) (cynomolgus monkey, UniProt A0A2K5UD97 1-53); assay: SPR, Fab as analyte, captured cynomolgus BCMA-Fc
T5 construct: bought protein; not shown: Fc of the bought fusion protein, not described
T5 sequence (A0A2K5UD97 entry or part of it): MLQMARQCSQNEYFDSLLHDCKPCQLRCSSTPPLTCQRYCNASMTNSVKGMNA

[6] = target: T1, human BCMA on cells (NCI-H929, NCI-H929 …); assay: flow cytometry, NCI-H929 cells
[7] = target: T6, human CD3 on cells (HPB-ALL cells, primary human T cells) (human, UniProt P07766 23-207); assay: flow cytometry, human CD4+ T cells
T6 construct: whole, on cells; only the epsilon chain is written
T6 sequence (P07766 23-207): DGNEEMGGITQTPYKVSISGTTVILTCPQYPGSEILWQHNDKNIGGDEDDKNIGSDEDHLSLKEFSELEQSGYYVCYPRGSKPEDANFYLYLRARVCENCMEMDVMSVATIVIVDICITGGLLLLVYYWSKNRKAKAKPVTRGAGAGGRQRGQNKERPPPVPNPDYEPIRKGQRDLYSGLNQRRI

Binder	Kd [1] [nM]	Kd [2] [nM]	Kd [3] [nM]	Kd [4] [nM]	Kd [5] [nM]	Maximum binding (RFI) [6] [RFI]	MFI at 800 nM [7] [MFI]
B1	9.4	8.6					
B2	3.5	2.4					
B3	4.9	1.1					
B4	2.2	1.8					
B5	23.6	4.4					
B6			6.03	0.14	0.24	23700	
B7			7.12	0.64	3.03	19500	
B8			5.82	0.08	0.14	27000	
B9				2.3	6.54		
B10			14.1	0.52	0.79	23300	
B11				5.43	4.85		
B12				2.22	5.86		
B13			11.8	0.78	2.83	29900	
B14			3.9	0.16	0.34	22900	
B15				1.03	1.03		
B16			7.68	0.03	0.01	21500	
B17			6.49	0.03	0.02	24600	
B18			3.65	0.09	0.17	26500	
B19			7.39	0.03	0.11	28300	
B20			8.84	0.02	0.01	25300	
B21			29.5	0.41	0.31	21500	
B22			13.4	0.01	0.01	31800	
B23							108000
B24							231000
